The record followed here is article PMC9399094.

A value given as a limit tells only on which side of the number the result lay.

Series [1] has as its system ORC (Orc1-6);Cdc6 (Saccharomyces cerevisiae (overexpressed in strain OY001);Saccharomyces cerevisiae). Kind of series: single-molecule fluorescence, optical tweezers. The settings on record: biotinylated ends, H2A K120C, Single-molecule optical tweezers with confocal fluorescence, ATP present, 2 nM ORC, 5 nM Cdc6, 10 nM MCM, high-salt wash 0.5 M NaCl, buffer, pH and temperature ….

For series [2], the target named is S.c. nucleosome: recombinant S. cerevisiae histone octamer (H2A K120C, fluorescently labeled) assembled on λ_(ARS1) DNA (S. cerevisiae) (UniProt P04911). The series can be described thus: single-molecule fluorescence colocalisation (dual-trap optical tweezers with confocal microscopy); nucleosomes sparsely assembled on λ_(ARS1) DNA tethered between streptavidin beads; 2 nM Cy3- or LD650-ORC and 5 nM Cdc6 in solution; 25 mM Tris-OAc pH 7.5, 50 mM potassium glutamate, 10 mM Mg(OAc)2, 2.5 mM ATP; room temperature.

The target of series [3] is S.c. Mcm2-7 complex with S6- and 3xFlag-tagged Mcm3, fluorescently labeled (S. cerevisiae) (UniProt P29469). The series can be described thus: single-molecule photobleaching step counting (optical tweezers with confocal microscopy); LD650-MCM on nucleosome-free λ_(ARS1) DNA with unlabeled ORC, Cdc6, Cdt1; oxygen scavenging system omitted; labeling efficiency of MCM ~60%; two hexamers to a double hexamer on DNA.

For series [4], the system named is ORC (Orc1-6);MCM (Mcm2-7);Cdc6;Cdt1 (Saccharomyces cerevisiae (overexpressed in strain OY001);Saccharomyces cerevisiae (overexpressed in strain OY001);Saccharomyces cerevisiae;Saccharomyces cerevisiae). The series can be described thus: single-molecule fluorescence, optical tweezers. The settings on record: 2 nM ORC, Single-molecule optical tweezers with confocal fluorescence, ATP present, 5 nM Cdc6, 10 nM MCM, high-salt wash 0.5 M NaCl, buffer, pH and temperature ….

Take “X.l. nucleosomes on λARS1 DNA (all positions)”: the binding signal (% of nucleosomes with stably bound ORC) in series [1] (Xenopus laevis octamer) is over 90.
Turning to “S.c. origin recognition complex (Orc1-6) with S6-3xFlag-Orc1, fluorescently labeled (from UniProt P54784 1-914; P32833 1-620; P54790 1-616; P54791 1-529; P50874 1-479; P38826 1-435)”, the fraction of nucleosomes with a stably bound ORC at 2 nM ORC in series [2] is over 90%.
In series [3], “S.c. Mcm2-7 complex with S6- and 3xFlag-tagged Mcm3, fluorescently labeled, P29469 1-868; P24279 1-971; P30665 1-933; P29496 1-775; P53091 1-1017; P38132 1-845” returned a fraction of MCM with two-step photobleaching of 36% and a stoichiometry N of 2.
Take λARS1 DNA, non-ARS1 positions: the binding signal was determined as 86 in series [4] (10 nM MCM, 5 nM Cdc6, biotinylated ends, scale: % of stably bound MCM located at non-ARS1 positions) and 25 in series [4] (0.5 M NaCl wash, biotinylated ends, scale: % of MCM loaded).
Turning to λARS1 DNA, ARS1 site, in series [4] (0.5 M NaCl wash, biotinylated ends (biotin-11-dUTP, biotin-14-dCTP fill-in), scale: % of MCM loaded), the binding signal came to 62.
Regarding “S.c. nucleosomes on λARS1 DNA (all positions)”, the binding signal (% of nucleosomes with stably bound ORC) in series [1] (S. cerevisiae octamer) was over 90.

Broadly, the stoichiometry N is a count of units in the complex or per binding partner.
